Data taken from article doi:10.1101/2024.12.16.628271.

Tests used:
[1] = target: Corynebacterium glutamicum PafA (proteasome accessory factor A; Pup ligase) (Corynebacterium glutamicum) (UniProt Q8NQE1); assay: SEC-MALS
[2] = target: Corynebacterium glutamicum PafA (proteasome accessory factor A; Pup ligase) (Corynebacterium glutamicum) (UniProt Q8NQE1); assay: HDX-MS
[3] = target: Corynebacterium glutamicum PafA (proteasome accessory factor A; Pup ligase) (Corynebacterium glutamicum) (UniProt Q8NQE1); assay: SEC

Corynebacterium glutamicum PafA (proteasome accessory factor A; Pup ligase) (from UniProt Q8NQE1 1-482) (enzyme)
stoichiometry N [1]: 2
average k open of PafA dimer dissociation (HDX-MS, EX1) [2]: 0.06 h⁻¹
Kd [3]: > 1100 µM
koff [3]: 4.72e-05 s⁻¹
